T1: murine CD300E-Fc (mouse)
T1 construct: mouse IgG2a-Fc fusion (R&D Systems); the entry is the whole fusion chain; also called mCD300E; Mouse CD300E-Fc
T1 chain: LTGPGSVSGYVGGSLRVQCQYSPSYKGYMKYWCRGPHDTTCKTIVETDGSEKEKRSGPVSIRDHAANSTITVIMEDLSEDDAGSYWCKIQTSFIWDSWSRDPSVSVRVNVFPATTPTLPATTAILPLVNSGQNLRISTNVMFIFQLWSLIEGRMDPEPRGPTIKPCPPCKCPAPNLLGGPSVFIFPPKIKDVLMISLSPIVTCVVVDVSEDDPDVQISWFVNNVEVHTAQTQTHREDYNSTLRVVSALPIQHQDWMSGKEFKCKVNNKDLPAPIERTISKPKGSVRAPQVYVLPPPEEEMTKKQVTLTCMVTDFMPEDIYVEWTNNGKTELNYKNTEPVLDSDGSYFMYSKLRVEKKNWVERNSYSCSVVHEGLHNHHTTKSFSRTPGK


Assays:
[1] = molecular target: T2, murine CD300A-Fc (mouse); assay: SPR (Carterra LSA), antibody immobilised
T2 construct: hIgG1-Fc fusion; the entry is the whole fusion chain; also called mCD300A; Mouse CD300A-Fc
Text: (§1) In addition to the screening of antibodies for cross-reactivity by FACS analysis, surface plasmon resonance (SPR) analysis was used to determine the binding of antibodies to recombinant huCD300 and muCD300 family members (orthologs) conjugated to an Fc (human CD300A-Fc SEQ ID NO:144; human CD300LB-Fc SEQ ID NO:145; human CD300C-Fc SEQ ID NO: 146; human CD300D-Fc SEQ ID NO: 147; human CD300E-Fc SEQ ID NO: 148; human CD300F-Fc SEQ ID NO: 149; murine CD300A-Fc SEQ ID NO: 150; murine CD300LB-Fc SEQ ID NO:151; murine CD300C-Fc SEQ ID NO: 152; murine CD300D-Fc SEQ ID NO: 153, and murine CD300E-Fc SEQ ID NO: 154).
(§2) Binding of mouse anti-CD300LB IgG1 antibodies of the present disclosure to human and murine CD300 orthologs were evaluated by surface plasmon resonance (SPR) using a Carterra LSA instrument (Carterra, Salt Lake City, UT). […] A HC200M sensor chip (Carterra) was activated using the single channel flow cell with a 7-minute injection of a 1:1:1 mixture of 100 mM MES pH 5.5, 100 mM sulfo-NHS, 400 mM EDC (all reconstituted in MES pH 5.5; 100 μL of each mixed in vial immediately before running assay). After switching to the multi-channel array flow cell, the antibodies were injected over the activated chip in a 96-spot array for 10 minutes. The remaining unconjugated active groups on the chip were then blocked by injecting 1M Ethanolamine pH 8.5 (Carterra) for 7 minutes using the single channel flow cell. After priming with running buffer (HBS-TE, Carterra) with 0.5 mg/ml BSA (Sigma), the immobilized anti-CD300LB antibodies were tested for their ability to bind human and mouse recombinant CD300LB extracellular domains. Human CD300 family members and mouse CD300A were hIgG1-Fc fusions, while mouse CD300LB, mouse CD300C, mouse CD300D, and mouse CD300E were mouse IgG2a-Fc fusions (R&D Systems). Binding was assessed by injecting each analyte over the entire antibody array using the single channel flow cell. CD300 analytes were diluted to 300 nM or 600 nM in running buffer and injected in series without regeneration. Two or three buffer blanks were run between each mouse or human ortholog, respectively. Data were processed and analyzed using NextGenKIT high-throughput kinetics analysis software (Carterra).

[2] = molecular target: T1, murine CD300E-Fc; assay: SPR (Carterra LSA), antibody immobilised
Text: as §1, §2

T2 sequence (chain, as listed by the source limits assumed): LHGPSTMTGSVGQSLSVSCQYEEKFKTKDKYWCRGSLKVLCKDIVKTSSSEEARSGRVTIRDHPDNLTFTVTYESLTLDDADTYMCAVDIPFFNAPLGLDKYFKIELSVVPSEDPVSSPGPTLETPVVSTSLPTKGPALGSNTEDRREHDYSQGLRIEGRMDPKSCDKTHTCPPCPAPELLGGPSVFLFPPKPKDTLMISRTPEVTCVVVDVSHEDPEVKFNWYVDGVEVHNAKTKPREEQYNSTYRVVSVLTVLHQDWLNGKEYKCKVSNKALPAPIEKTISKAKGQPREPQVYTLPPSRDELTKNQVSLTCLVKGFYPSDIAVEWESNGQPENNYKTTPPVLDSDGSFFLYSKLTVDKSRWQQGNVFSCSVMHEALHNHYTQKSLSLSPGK

Row | Binder | binding result [1] | binding result [2]
1 | anti-CD300LB antibody CD-12 (antibody, V domains shown) VH: QIQLVQSGPELKKPGETVKISCKASGYTFTDYSMHWVRQAPGKGLKWMAWINTETGEATHADDFKGRFDFSLDTSASTAYLQIKNLKNEDTGIYFCVCYGSSYGMDYWGQGTSVTVSS VL: DIVLTQSPASLPVSLGQRATISCRASKSVRTSGASYMHWYQQKPGQPPKLLIYLASNLKSGVPTRFSGSGSGTDFTLNIHPVEEEDAATYYCQHNREVPPTFGGGTKLEIK | no binding (tested: 300 nM or 600 nM) | no binding (tested: 300 nM or 600 nM)
2 | anti-CD300LB antibody CD-15 (antibody, V domains shown) VH: QIQLVQSGPELKKPGETVKISCQVSGYTFTDYSMHWLKQAPGKGLKWMAWINTETGESTYTDEFKGRFVFSLETSVRTAYLKINNLKNEDTATYFCGTYGSSYGMAYWGQGTSVTVSS VL: DIVLTQSPASLPVSLGQRATISCRASKSVSTSGSSYLHWYQQKPGQPPKLLIYLASKLESGVPARFRGSGSGTDFTLNIHPVEEEDAATYYCQHNREVPPTFGGGTKLEIK | no binding (tested: 300 nM or 600 nM) | no binding (tested: 300 nM or 600 nM)
3 | anti-CD300LB antibody CD-17 (antibody, V domains shown) VH: QIQLVQSGPELKKPGETVKISCKASGYTLTDYSMHWVKQAPGKGLKWMGWINTETGEPRYGDDFKGRFAFSLETSASSAYLQINNLKNDDTATYFCATYGRSYGMDFWGQGTSVTVSS VL: DIVLTQSPASLAVSLGQRATISCRASKSVSPSGHSYMHWYQQKPGQPPKLLIYLASNLKSGVPARFSGSGSGTDFTLNIHPVEEGDAATYYCQHNRELPPTFGGGSKLEIK | no binding (tested: 300 nM or 600 nM) | no binding (tested: 300 nM or 600 nM)
4 | anti-CD300LB antibody CD-13 (antibody, V domains shown) VH: QIQLVQSGPELKKPGETVKISCKASGYTFTDYSMHWVKQAPGKGFKWMAWINTETGAPTHADDFRGRFAFSLETSASTAFLQISNLKTEDTATYFCVTFGKSYGMNYWGQGTSVTVSS VL: DIVLTQSPASLSVSLGQRATISCRASKSVGSSGSSYLHWYQQKPGQPPKLLIYLASNLESGVPARFSGSGSGTEFTLNIHPVEEEDAATYYCQHNAEVPPTFGGGTKLEIK | no binding (tested: 300 nM or 600 nM) | no binding (tested: 300 nM or 600 nM)
5 | anti-CD300LB antibody CD-16 (antibody, V domains shown) VH: QIQLVQSGPELKKPGETVKISCKASGYTFTDYSMHWVKQAPGKGLKWMAWINTETGEPTYADDFRGRFAFSLETSGRTAYLEINNLRNEDTATYFCVTYGSSYGMAYWGQGTSVTVSS VL: DIVLTQSPASLAVSLGQRATISCRASKSVSRSGYSYLHWYQQKPGQPPKLLIYLASKLESGVPARFSGSGSGTDFTLNIHPVEAEDAATYYCQHNREIPPTFGGGTKLEIK | no binding (tested: 300 nM or 600 nM) | no binding (tested: 300 nM or 600 nM)
6 | anti-CD300LB antibody CD-14 (antibody, V domains shown) VH: QIQLVQSGPELKKPGETVKISCKASGYTFTDYSLHWVKQTPEKNLKWMAWINTETGAPTYADDFKGRFAFSLETSSNTAYLLINNLKNEDTATYFCALTMVNYWGQGTTLTVSS VL: DIVMTQSQKFMSTSVGDRVSVTCKASQNVGIRVAWHQQKPGQSPKTLIYSTSYRYSGVPDRFTGSGSGTEFILTISNVQSEDLAEYFCQQYNSYPYTFGGGTKLEIK | no binding (tested: 300 nM or 600 nM) | no binding (tested: 300 nM or 600 nM)
7 | anti-CD300LB antibody CD-11 (antibody, V domains shown) VH: QIQLVQSGPEVKKPGETVKISCKASGYTLTDYSMHWVMQTPGTGLKWMAWMNTETGEPTYADDFKGRFAFSLETSAGTAYLQIDNLKNEDTATYFCATYGKSYGMKYWGQGTSVTVSS VL: DIVLTQSPPSLAVSLGQRATISCRATKSVSPYLHWYQQTPGQPPKLLIYLASNLDSGVPARFSGSGSGTDFTLNIHPVEEEDAATYYCQHNKELPPTFGGGTRLEIK | no binding (tested: 300 nM or 600 nM) | no binding (tested: 300 nM or 600 nM)

— patent publication US20240254227A1 (Alector, published 2024)
